This passage reports mean dwell time and Kd results from PMC8764033, “Single-molecule analysis of specificity and multivalency in binding of short linear substrate motifs to the APC/C” (Nature Communications, 2022).

Assay [1] addresses Cdh1-activated yeast APC/C with the mutant Apc10 subunit Apc10-4A (S. cerevisiae | S. cerevisiae (endogenous in yeast)) (UniProt P53197). The experiment in a line: single-molecule off-rate (SMOR) assay, TIRF microscopy; target held on PEG/PEG-biotin glass by NeutrAvidin and biotinylated anti-Strep-Tag II antibody (tag on the activator); dye-labeled ligand (peptide no greater than 1 nM) in buffer C + BSA (20 mM HEPES pH 7.5, 150 mM KCl, 10% glycerol, 0.05% Tween-20, 1 mM DTT) with oxygen scavengers; mean dwell time from an exponential distribution; dwell times below 100 ms noted as single-frame (SF).

Assay [2] concerns the target Cdc20-activated yeast APC/C with the mutant Apc10 subunit Apc10-4A (S. cerevisiae | S. cerevisiae (endogenous in yeast)) (UniProt P26309). The description is as above.
For assay [3], the target named is Cdh1-activated yeast APC/C (S. cerevisiae | S. cerevisiae (endogenous in yeast)) (UniProt P53197). The assay is described as above.
The target in assay [4] is Cdc20-activated yeast APC/C (S. cerevisiae | S. cerevisiae (endogenous in yeast)) (UniProt P26309). Described as above.
The target of assay [5] is Cdh1-activated yeast APC/C (S. cerevisiae | S. cerevisiae (endogenous in yeast)) (UniProt P53197). The experiment in a line: fluorescence polarisation + other: single-molecule off-rate (SMOR) assay; inferred constants: kon from the KD of anisotropy and the koff of SMOR; KD for APC/C^Cdh1 from the dwell time with the kon of Cdh1 alone assumed.

Sequence of Hsl1 fragment (amino acids 667–872) with C-terminal HaloTag, wild-type degrons (P34244 667-872): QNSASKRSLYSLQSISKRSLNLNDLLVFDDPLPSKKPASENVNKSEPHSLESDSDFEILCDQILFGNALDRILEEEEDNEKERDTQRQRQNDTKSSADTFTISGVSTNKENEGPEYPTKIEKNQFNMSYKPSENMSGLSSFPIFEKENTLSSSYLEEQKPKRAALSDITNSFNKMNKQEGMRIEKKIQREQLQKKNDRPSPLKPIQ
Sequence of Cdh1-activated yeast APC/C with the mutant Apc10 subunit Apc10-4A (S. cerevisiae | S. cerevisiae (endogenous in yeast)) (P53197 whole entry, looked up, change not shown, tested part not stated): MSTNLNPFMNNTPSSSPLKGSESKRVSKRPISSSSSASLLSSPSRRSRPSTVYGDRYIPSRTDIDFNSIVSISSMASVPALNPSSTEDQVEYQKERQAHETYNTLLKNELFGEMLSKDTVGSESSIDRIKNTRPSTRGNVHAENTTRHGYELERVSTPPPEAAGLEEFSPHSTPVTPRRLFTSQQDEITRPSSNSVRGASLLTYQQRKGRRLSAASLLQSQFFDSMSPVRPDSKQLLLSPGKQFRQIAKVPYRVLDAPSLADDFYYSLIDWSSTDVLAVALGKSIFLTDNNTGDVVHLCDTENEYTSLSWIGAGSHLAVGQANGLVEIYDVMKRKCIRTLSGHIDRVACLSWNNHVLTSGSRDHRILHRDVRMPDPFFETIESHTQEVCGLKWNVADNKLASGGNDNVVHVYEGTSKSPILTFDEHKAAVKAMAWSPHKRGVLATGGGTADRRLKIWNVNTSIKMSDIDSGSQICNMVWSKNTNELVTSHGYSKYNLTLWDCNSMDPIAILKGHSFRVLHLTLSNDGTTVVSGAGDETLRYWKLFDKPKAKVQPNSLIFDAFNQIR
Sequence of Cdc20-activated yeast APC/C with the mutant Apc10 subunit Apc10-4A (S. cerevisiae | S. cerevisiae (endogenous in yeast)) (P26309 whole entry, looked up, change not shown, tested part not stated): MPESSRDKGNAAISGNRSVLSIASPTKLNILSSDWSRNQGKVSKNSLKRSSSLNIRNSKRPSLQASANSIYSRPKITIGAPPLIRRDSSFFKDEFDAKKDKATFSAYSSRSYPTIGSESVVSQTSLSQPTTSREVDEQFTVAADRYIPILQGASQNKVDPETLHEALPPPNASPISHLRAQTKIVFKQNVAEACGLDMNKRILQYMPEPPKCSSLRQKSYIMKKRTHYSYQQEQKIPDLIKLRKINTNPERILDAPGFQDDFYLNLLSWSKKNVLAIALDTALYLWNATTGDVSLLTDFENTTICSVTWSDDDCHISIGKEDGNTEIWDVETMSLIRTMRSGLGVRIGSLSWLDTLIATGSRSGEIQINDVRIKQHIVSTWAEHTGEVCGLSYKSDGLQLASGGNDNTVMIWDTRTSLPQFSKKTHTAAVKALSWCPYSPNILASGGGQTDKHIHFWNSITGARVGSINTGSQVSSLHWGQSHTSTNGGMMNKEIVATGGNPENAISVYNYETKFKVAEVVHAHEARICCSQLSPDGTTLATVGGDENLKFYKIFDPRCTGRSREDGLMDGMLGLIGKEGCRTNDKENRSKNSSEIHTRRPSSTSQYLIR

Cy5-labeled Hsl1 D box peptide: the mean dwell time is 0.375 s in assay [1] and 0.152 s in assay [2].

As usually defined, the Kd is the equilibrium constant for the complex coming apart. Turning to “Hsl1 fragment (amino acids 667–872) with C-terminal HaloTag, wild-type degrons (from UniProt P34244 667-872) (domain or fragment)”, the mean dwell time in assay [3] came out at 321 s; in assay [1], 75.9 s; in assay [2], 0.449 s; in assay [4], 0.518 s. Besides, the Kd in assay [5] was determined as 4 nM.
